The values that follow come from paper PMC11119335.

The target of data set [1] is T1, AtCBF1 (Arabidopsis thaliana, UniProt P93835 1-213). Put plainly: competition.
Data set [2] concerns the target T2, OsDREB1C (WT) (Oryza sativa, UniProt Q9LWV3 1-214). Put plainly: competition.
The target in data set [3] is OsDREB1C-m2 (R12K) (Oryza sativa, UniProt Q9LWV3 1-214, R45K). Put plainly: competition.
In data set [4] the target is T1, AtCBF1. Put plainly: EMSA. For orientation: Mobility shift assays separate free from complexed probe on a gel.
The target in data set [5] is OsDREB1C-m1 (A10_) (Oryza sativa, UniProt Q9LWV3 1-214, del43-43). In words: EMSA.
Data set [6] concerns the target T2, OsDREB1C (WT). Put plainly: EMSA.

T1 sequence (P93835 whole entry): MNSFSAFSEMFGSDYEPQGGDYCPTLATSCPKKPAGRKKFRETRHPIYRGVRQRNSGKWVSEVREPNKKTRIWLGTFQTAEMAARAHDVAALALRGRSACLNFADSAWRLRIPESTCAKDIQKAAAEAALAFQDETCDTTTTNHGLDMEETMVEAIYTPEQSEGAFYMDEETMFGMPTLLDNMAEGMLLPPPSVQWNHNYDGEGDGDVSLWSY

B1: OsNR2 GCCGAC competitor, 29 bp (dsDNA)
DNA 1: CAGGAGCTCGATGTAGCCGACCTCGTCGA
DNA 2: TCGACGAGGTCGGCTACATCGAGCTCCTG
In the case of B1, the binding result in data set [1], in data set [2] and in data set [3] was “binds” in each case.

B2: ACCGAC probe, 29 bp (dsDNA)
DNA 1: CAGGAGCTCGATGTAACCGACCTCGTCGA
DNA 2: TCGACGAGGTCGGTTACATCGAGCTCCTG
For the molecule B2, the binding result in data set [4] is “binds”.

B3: ACCGAC competitor, 29 bp (dsDNA)
DNA 1: CAGGAGCTCGATGTAACCGACCTCGTCGA
DNA 2: TCGACGAGGTCGGTTACATCGAGCTCCTG
For the molecule B3, the binding result in data set [1] and in data set [3] was “binds” each time.

B4: OsNR2 GCCGAC probe, 29 bp (dsDNA)
DNA 1: CAGGAGCTCGATGTAGCCGACCTCGTCGA
DNA 2: TCGACGAGGTCGGCTACATCGAGCTCCTG
Regarding B4, the binding result in data set [5] and in data set [6] was “binds” throughout.
